{
  "source": "paper PMC5430633",
  "about": "“Phosphorylation of the mitochondrial autophagy receptor Nix enhances its interaction with LC3 proteins” (Scientific Reports, 2017)",
  "molecular_target": "LC3B (UniProt Q9GZQ8)",
  "test": "NMR titration of labelled LC3B",
  "details": "reference: unphosphorylated peptide P0; sites S34,S35",
  "data": [
    {"substance": "Nix (from UniProt O60238) pS34 pS35 peptide P2", "values": [
      {"measurement": "KD", "value": "stronger; reference ~100"}
    ]}
  ]
}
